Test system: FasR wild-type (FasRwt) (Mycobacterium tuberculosis H37Rv)
Test: EMSA

PfasMT promoter fragment (398 bp) was tested, and the Kd was 83 nM.
